B1: anti-CD137 antibody clone 31 (antibody, human IgG4 S228P, lambda, V domains shown)
VH: not shown
VL: QSALTQPASVSGSPGQSITISCTGTSSDVGAYNFVSWYQQRPGKAPELMIYDVSDRPSGVSNRFSGSKSGNTASLTISGLQTEDEADYYCSSYTSSITRYVFGTGTKVTVLG
notes: also called CD137 #31; anti-CD137#31
B2: anti-CD137 antibody clone 54 (antibody, human IgG4 S228P, lambda, V domains shown)
VH: QVQLVQSGAEVKKPGSTVKVSCKASGGTFSSYAISWVRQAPGQGLEWMGRIIPILGIANYAQKFQGRVTITADKSTSTAYMELSSLRSEDTAVYYCASPPYYDSSGYYPLGAFDIWGQGTMVTVSS
VL: SYELTQPPSVSVSPGQTASITCSGDKLGEKYASWYQQKAGQSPILVIYQDSKRPSGIPERFSGSNSGNTATLTISGLQAGDEADYYCQAWDGSSTYVFGTGTKVTVFG
notes: also called CD137 #54; CD137#54
B3: anti-CD137 antibody clone 15 (antibody, human IgG4 S228P, lambda, V domains shown)
VH: QVQLVQSGAEVKKPGSSVKVSCKASGGTFSSYAISWVRQAPGQGLEWMGRIIPILGIANYAQKFQGRVTITADKSTSTAYMELSSLRSEDTAVYYCASDLYQLLFPYYYGMDVWGQGTTVTVSS
VL: QLVLTQPPSASASLGASVTLTCTLSSGYSNYKVDWYQQRPGKGPRFVMRVGTGGIVGSKGDGIPDRFSVLGSGLNRYLTIKNIQEEDESDYHCGADHGSGSNLFWVFGGGTKLTVLG
notes: also called CD137 #15; anti-CD137#15

Assays:
[1] = biological target: T1, CD137 expressed on cells (HEK-293F/CD137 cells); PMA/ionomycin-activated Jurkat cells; CD137 reporter HEK293 … (UniProt Q07011 24-255, limits assumed); test: flow cytometry on HEK-293F/CD137 cells, antibody 50 µg/ml, anti-human Fc-A488
T1 construct: whole, on cells; One entry is used for CD137 on transfected HEK293/293F cells and for CD137 induced on Jurkat cells; also called 293F cells stably expressing CD137; CD137-overexpressing HEK-293F cells
T1 sequence (Q07011 24-255 limits assumed): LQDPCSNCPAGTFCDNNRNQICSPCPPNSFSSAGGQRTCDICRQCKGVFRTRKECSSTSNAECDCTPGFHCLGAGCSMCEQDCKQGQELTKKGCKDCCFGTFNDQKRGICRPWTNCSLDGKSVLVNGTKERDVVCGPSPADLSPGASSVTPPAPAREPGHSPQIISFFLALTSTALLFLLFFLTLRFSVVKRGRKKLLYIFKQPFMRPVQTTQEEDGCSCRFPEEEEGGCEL

[2] = biological target: T2, recombinant human CD137-ECD-Fc (APBio Inc.) (human, UniProt Q07011 24-186); test: ELISA on coated human CD137-IgG4 Fc
T2 construct: extracellular domain; Made by APBio; also called CD137-Fc recombinant protein; recombinant CD137/Fc; not shown: IgG4 Fc
T2 sequence (Q07011 24-186): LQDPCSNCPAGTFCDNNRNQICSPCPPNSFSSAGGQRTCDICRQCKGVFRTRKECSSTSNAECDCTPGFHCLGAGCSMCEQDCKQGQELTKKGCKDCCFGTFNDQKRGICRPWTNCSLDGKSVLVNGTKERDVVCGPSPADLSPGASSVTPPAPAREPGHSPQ

Binder | binding result [1] | binding result [2]
B1 | binds | binds
B2 | binds | binds
B3 | binds | –
